Measured values as given in patent publication US20250076311A1 (Chugai, published 2025).
Each block holds one binder with its values, some of them ahead of it.

How the values were obtained:
[1] = biological target: T1, cynomolgus monkey FcγRIIIaS extracellular domain with C-terminal His-tag (cynomolgus monkey, UniProt Q8SPW2 21-206 at identity 1.00)); assay: SPR, KD(SG1)/KD(variant)
T1 construct: also called cyno FcgRIIIaS; cynoFcγRIIIaS
T1 chain: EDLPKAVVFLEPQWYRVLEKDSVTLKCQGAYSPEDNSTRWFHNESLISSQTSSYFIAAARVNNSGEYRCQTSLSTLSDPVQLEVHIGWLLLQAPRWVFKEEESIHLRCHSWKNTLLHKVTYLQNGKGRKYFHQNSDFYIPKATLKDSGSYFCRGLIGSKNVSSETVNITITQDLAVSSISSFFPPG

[2] = biological target: T2, human FcγRIIaH extracellular domain with C-terminal His-tag (human, UniProt P12318 34-217); assay: SPR, KD(SG1)/KD(variant)
T2 construct: also called human FcgRIIaH; FcγRIIa (type H)
T2 sequence: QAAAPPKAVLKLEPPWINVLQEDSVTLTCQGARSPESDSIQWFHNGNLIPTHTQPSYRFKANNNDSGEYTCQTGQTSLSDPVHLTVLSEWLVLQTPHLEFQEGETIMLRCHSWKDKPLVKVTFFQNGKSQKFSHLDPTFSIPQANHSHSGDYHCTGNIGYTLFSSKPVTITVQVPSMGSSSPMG

[3] = biological target: T3, human FcγRIIb extracellular domain with C-terminal His-tag (human, UniProt P31994 43-217); assay: SPR (Biacore), KD of SG1 divided by KD of variant
T3 construct: also called human FcgRIIb
T3 sequence: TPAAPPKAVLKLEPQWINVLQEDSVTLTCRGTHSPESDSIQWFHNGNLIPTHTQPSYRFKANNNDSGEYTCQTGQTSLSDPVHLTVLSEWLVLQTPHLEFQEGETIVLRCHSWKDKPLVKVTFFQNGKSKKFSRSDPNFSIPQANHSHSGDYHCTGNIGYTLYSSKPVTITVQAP

[4] = biological target: T4, cynomolgus monkey FcγRIIa3 extracellular domain with C-terminal His-tag (cynomolgus monkey); assay: SPR (Biacore), antibody captured, FcgR as analyte
T4 construct: also called cyno FcgRIIa3; cynoFcγRIIa3
T4 chain: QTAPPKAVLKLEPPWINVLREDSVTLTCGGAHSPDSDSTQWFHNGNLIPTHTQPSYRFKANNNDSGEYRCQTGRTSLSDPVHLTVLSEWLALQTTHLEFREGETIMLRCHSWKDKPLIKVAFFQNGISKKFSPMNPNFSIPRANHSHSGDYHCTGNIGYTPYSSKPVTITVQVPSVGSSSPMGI

[5] = biological target: T5, human FcγRIIaR extracellular domain with C-terminal His-tag (human, UniProt P12318 34-217); assay: SPR (Biacore), antibody captured, FcgR as analyte
T5 construct: also called human FcgRIIaR; FcγRIIa (type R)
T5 chain: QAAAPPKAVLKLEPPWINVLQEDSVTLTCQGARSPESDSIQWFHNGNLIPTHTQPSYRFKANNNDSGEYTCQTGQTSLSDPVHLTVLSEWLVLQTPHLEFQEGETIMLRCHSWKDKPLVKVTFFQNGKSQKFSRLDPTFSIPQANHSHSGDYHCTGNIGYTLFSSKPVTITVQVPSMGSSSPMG

[6] = biological target: T6, cynomolgus monkey FcγRIIIaS extracellular domain with C-terminal His-tag (cynomolgus monkey, UniProt Q8SPW2 21-206 at identity 1.00)); assay: SPR (Biacore), antibody captured, FcgR as analyte
T6 construct: also called cyno FcgRIIIaS; cynoFcγRIIIaS
T6 chain: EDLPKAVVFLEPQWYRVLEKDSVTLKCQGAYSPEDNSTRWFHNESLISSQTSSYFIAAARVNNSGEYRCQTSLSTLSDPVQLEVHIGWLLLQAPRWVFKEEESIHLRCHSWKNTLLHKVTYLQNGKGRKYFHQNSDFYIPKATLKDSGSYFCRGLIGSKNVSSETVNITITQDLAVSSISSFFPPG

[7] = biological target: T7, cynomolgus monkey FcγRIIa1 extracellular domain with C-terminal His-tag (cynomolgus monkey); assay: SPR (Biacore), antibody captured, FcgR as analyte
T7 construct: also called cyno FcgRIIa1; cynoFcγRIIa1
T7 chain: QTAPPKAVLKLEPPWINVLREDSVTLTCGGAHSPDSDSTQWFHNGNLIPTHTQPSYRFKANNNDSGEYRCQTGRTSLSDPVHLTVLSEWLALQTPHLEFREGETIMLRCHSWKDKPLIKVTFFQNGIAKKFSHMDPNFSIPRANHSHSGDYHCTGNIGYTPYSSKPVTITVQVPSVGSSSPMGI

[8] = biological target: T8, cynomolgus monkey FcγRIIb extracellular domain with C-terminal His-tag (cynomolgus monkey); assay: SPR (Biacore), KD of SG1 divided by KD of variant
T8 construct: also called cyno FcgRIIb; cynoFcγRIIb
T8 chain: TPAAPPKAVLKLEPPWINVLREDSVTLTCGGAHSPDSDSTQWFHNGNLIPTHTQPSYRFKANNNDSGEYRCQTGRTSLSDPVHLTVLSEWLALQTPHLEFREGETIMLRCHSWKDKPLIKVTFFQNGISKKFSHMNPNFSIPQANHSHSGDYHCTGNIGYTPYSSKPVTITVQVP

[9] = biological target: T9, human FcγRIIaH extracellular domain with C-terminal His-tag (human, UniProt P12318 34-217); assay: SPR (Biacore), KD of SG1 divided by KD of variant
T9 construct: also called human FcgRIIaH; FcγRIIa (type H)
T9 sequence: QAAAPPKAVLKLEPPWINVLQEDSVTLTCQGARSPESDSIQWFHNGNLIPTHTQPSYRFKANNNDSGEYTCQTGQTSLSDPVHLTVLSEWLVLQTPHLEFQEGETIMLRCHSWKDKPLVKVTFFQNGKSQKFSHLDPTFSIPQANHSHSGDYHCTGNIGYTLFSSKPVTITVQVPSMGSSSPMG

[10] = biological target: T5, human FcγRIIaR extracellular domain …; assay: SPR (Biacore), KD of SG1 divided by KD of variant
[11] = biological target: T10, cynomolgus monkey FcγRIIa2 extracellular domain with C-terminal His-tag (cynomolgus monkey); assay: SPR (Biacore), antibody captured, FcgR as analyte
T10 construct: also called cyno FcgRIIa2; cynoFcγRIIa2
T10 chain: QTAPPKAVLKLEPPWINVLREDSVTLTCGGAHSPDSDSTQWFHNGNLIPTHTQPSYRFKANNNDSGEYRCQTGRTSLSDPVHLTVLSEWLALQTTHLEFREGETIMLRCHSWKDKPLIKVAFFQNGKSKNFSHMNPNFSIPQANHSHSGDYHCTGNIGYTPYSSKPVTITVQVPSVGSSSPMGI

[12] = biological target: T9, human FcγRIIaH extracellular domain …; assay: SPR (Biacore), antibody captured, FcgR as analyte
[13] = biological target: T10, cynomolgus monkey FcγRIIa2 …; assay: SPR (Biacore), KD of SG1 divided by KD of variant
[14] = biological target: T3, human FcγRIIb extracellular domain with …; assay: SPR (Biacore), antibody captured, FcgR as analyte

B2: M103205H795-MY339 / M103202L889-SK1 (antibody, human IgG1, kappa, name in EU numbering)
heavy: QVTLKESGPVLVKPTETLTLTCTVSGIDLSHDDISWVRQAPGKGLEWVGIISYAGSTYYASWAKGRLTISKDTSKNQVVLTMTNMDPVDTATYYCARGVPAYSHGGDLWGQGTLVTVSSASTKGPSVFPLAPSSKSTSGGTAALGCLVKDYFPEPVTVSWNSGALTSGVHTFPAVLQSSGLYSLSSVVTVPSSSLGTQTYICNVNHKPSNTKVDKKVEPKSCDKTHTCPPCPAPELLLGPSVFLFPPKPKDTLMISRTPEVTCVVVDVSDEDPEVKFNWYVDGVEVHNAKTKPREEQYNSTYRVVSVLTVLHQDWLNGKEYKCKVSNTALPKPIEKTISKAKGQPREPQVYTLPPSREEMTKNQVSLTCLVKGFYPSDIAVEWESNGQPENNYKTTPKVLDSDGSFFLYSKLTVDKSRWQQGNVFSCSVMHEALHNHYTQKSLSLSP
light: DIVMTQSPATLSLSPGERATLSCTSSQSVYHANWLSWFQQKPGQPPKLLIYWASTLAYGVPSRFSGSGSGTDFTLTISSLQPEDAATYYCAGGYGGGRYAFGQGTKVEIKRTVAAPSVFIFPPSDEQLKSGTASVVCLLNNFYPREAKVQWKVDNALQSGNSQESVTEQDSKDSTYSLSSTLTLSKADYEKHKVYACEVTHQGLSSPVTKSFNRGEC
KD fold (SG1 = 1) [3]: 1.6 fold
Kd [4]: 9800 nM
Kd [5]: 630 nM

B3: M103205H795-MY526 / M103202L889-SK1 (antibody, human IgG1, kappa, name in EU numbering)
heavy: QVTLKESGPVLVKPTETLTLTCTVSGIDLSHDDISWVRQAPGKGLEWVGIISYAGSTYYASWAKGRLTISKDTSKNQVVLTMTNMDPVDTATYYCARGVPAYSHGGDLWGQGTLVTVSSASTKGPSVFPLAPSSKSTSGGTAALGCLVKDYFPEPVTVSWNSGALTSGVHTFPAVLQSSGLYSLSSVVTVPSSSLGTQTYICNVNHKPSNTKVDKKVEPKSCDKTHTCPPCPTPELLTGPVVFLFPPKPKDTLMISRTPEVTCVVVDVSDEDPEVKFNWYVDGVEVHNAKTKPREELYNSTYRVVSVLTVLHQDWLNGKEYKCKVSNKALPKPIEKTISKAKGQPREPQVYTLPPSREEMTKNQVSLTCLVKGFYPSDIAVEWESNGQPENNYKTTPPVLDSDGSFFLYSKLTVDKSRWQQGNVFSCSVMHEALHNHYTQKSLSLSP
light: DIVMTQSPATLSLSPGERATLSCTSSQSVYHANWLSWFQQKPGQPPKLLIYWASTLAYGVPSRFSGSGSGTDFTLTISSLQPEDAATYYCAGGYGGGRYAFGQGTKVEIKRTVAAPSVFIFPPSDEQLKSGTASVVCLLNNFYPREAKVQWKVDNALQSGNSQESVTEQDSKDSTYSLSSTLTLSKADYEKHKVYACEVTHQGLSSPVTKSFNRGEC
Kd [6]: 1600 nM
Kd [7]: 1300 nM

B4: M103205H795-MY387 / M103202L889-SK1 (antibody, human IgG1, kappa, name in EU numbering)
heavy: QVTLKESGPVLVKPTETLTLTCTVSGIDLSHDDISWVRQAPGKGLEWVGIISYAGSTYYASWAKGRLTISKDTSKNQVVLTMTNMDPVDTATYYCARGVPAYSHGGDLWGQGTLVTVSSASTKGPSVFPLAPSSKSTSGGTAALGCLVKDYFPEPVTVSWNSGALTSGVHTFPAVLQSSGLYSLSSVVTVPSSSLGTQTYICNVNHKPSNTKVDKKVEPKSCDKTHTCPPCPAPELLTGPVVFLFPPKPKDTLMISRTPEVTCVVVDVSDEDPEVKFNWYVDGVEVHNAKTKPREEQYNSTYRVVSVLTVLHQDWLNGKEYKCKVSNKALPKPIEKTISKAKGQPREPQVYTLPPSREEMTKNQVSLTCLVKGFYPSDIAVEWESNGQPENNYKTTPPVLDSDGSFFLYSKLTVDKSRWQQGNVFSCSVMHEALHNHYTQKSLSLSP
light: DIVMTQSPATLSLSPGERATLSCTSSQSVYHANWLSWFQQKPGQPPKLLIYWASTLAYGVPSRFSGSGSGTDFTLTISSLQPEDAATYYCAGGYGGGRYAFGQGTKVEIKRTVAAPSVFIFPPSDEQLKSGTASVVCLLNNFYPREAKVQWKVDNALQSGNSQESVTEQDSKDSTYSLSSTLTLSKADYEKHKVYACEVTHQGLSSPVTKSFNRGEC
KD fold (SG1 = 1) [8]: 2.7 fold
KD fold (SG1 = 1) [9]: 2.9 fold
KD fold (SG1 = 1) [3]: 2.9 fold
KD fold (SG1 = 1) [10]: 5.5 fold
Kd [11]: 1900 nM
Kd [12]: 240 nM

Second part, the binder after the results:

KD fold (SG1 = 1) [1]: 0.17 fold
KD fold (SG1 = 1) [2]: 1.8 fold
B1: M103205H795-MY535/M103202L889-SK1 (antibody, human IgG1, kappa, name in EU numbering)
heavy: QVTLKESGPVLVKPTETLTLTCTVSGIDLSHDDISWVRQAPGKGLEWVGIISYAGSTYYASWAKGRLTISKDTSKNQVVLTMTNMDPVDTATYYCARGVPAYSHGGDLWGQGTLVTVSSASTKGPSVFPLAPSSKSTSGGTAALGCLVKDYFPEPVTVSWNSGALTSGVHTFPAVLQSSGLYSLSSVVTVPSSSLGTQTYICNVNHKPSNTKVDKKVEPKSCDKTHTCPPCPGPEWLTGPSVFLFPPKPKDTLMISRTPEVTCVVVDVSDEDPEVKFNWYVDGVEVHNAKTKPREEQYNSTYRVVSVLTVLHQDWLNGKEYKCKVSNKALPKPIEKTISKAKGQPREPQVYTLPPSREEMTKNQVSLTCLVKGFYPSDIAVEWESNGQPENNYKTTPPVLDSDGSFFLYSKLTVDKSRWQQGNVFSCSVMHEALHNHYTQKSLSLSP
light: DIVMTQSPATLSLSPGERATLSCTSSQSVYHANWLSWFQQKPGQPPKLLIYWASTLAYGVPSRFSGSGSGTDFTLTISSLQPEDAATYYCAGGYGGGRYAFGQGTKVEIKRTVAAPSVFIFPPSDEQLKSGTASVVCLLNNFYPREAKVQWKVDNALQSGNSQESVTEQDSKDSTYSLSSTLTLSKADYEKHKVYACEVTHQGLSSPVTKSFNRGEC
notes: copies: 2 + 2

KD fold (SG1 = 1) [13]: 3.5 fold
Kd [14]: 1200 nM
B5: M103205H795-MY534 / M103202L889-SK1 (antibody, human IgG1, kappa, name in EU numbering)
heavy: QVTLKESGPVLVKPTETLTLTCTVSGIDLSHDDISWVRQAPGKGLEWVGIISYAGSTYYASWAKGRLTISKDTSKNQVVLTMTNMDPVDTATYYCARGVPAYSHGGDLWGQGTLVTVSSASTKGPSVFPLAPSSKSTSGGTAALGCLVKDYFPEPVTVSWNSGALTSGVHTFPAVLQSSGLYSLSSVVTVPSSSLGTQTYICNVNHKPSNTKVDKKVEPKSCDKTHTCPPCPAPELLTGPVVFLFPPKPKDTLMISRTPEVTCVVVDVSDEDPEVKFNWYVDGVEVHNAKTKPREELYNSTYRVVSVLTVLHQDWLNGKEYKCKVSNKALPKPIEKTISKAKGQPREPQVYTLPPSREEMTKNQVSLTCLVKGFYPSDIAVEWESNGQPENNYKTTPPVLDSDGSFFLYSKLTVDKSRWQQGNVFSCSVMHEALHNHYTQKSLSLSP
light: DIVMTQSPATLSLSPGERATLSCTSSQSVYHANWLSWFQQKPGQPPKLLIYWASTLAYGVPSRFSGSGSGTDFTLTISSLQPEDAATYYCAGGYGGGRYAFGQGTKVEIKRTVAAPSVFIFPPSDEQLKSGTASVVCLLNNFYPREAKVQWKVDNALQSGNSQESVTEQDSKDSTYSLSSTLTLSKADYEKHKVYACEVTHQGLSSPVTKSFNRGEC
